T1: human OX40 expressed on HEK293A cells (human, UniProt P43489 29-277)
T1 construct: also called HEK293A/huOX40; HEK293A/human OX40 cells
T1 sequence: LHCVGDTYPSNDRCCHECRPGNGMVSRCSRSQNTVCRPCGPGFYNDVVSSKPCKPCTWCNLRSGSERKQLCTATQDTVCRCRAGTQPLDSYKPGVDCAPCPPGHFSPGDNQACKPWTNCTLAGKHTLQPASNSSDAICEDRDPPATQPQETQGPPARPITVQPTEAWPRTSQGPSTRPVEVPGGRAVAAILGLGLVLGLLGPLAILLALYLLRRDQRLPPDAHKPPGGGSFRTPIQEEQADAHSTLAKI

T2: rhesus OX40 expressed on HEK293A cells (rhesus, UniProt P43489 29-277 (human entry))
T2 construct: also called HEK293A/rhOX40; HEK293A/rhesusOX40 cells
T2 chain: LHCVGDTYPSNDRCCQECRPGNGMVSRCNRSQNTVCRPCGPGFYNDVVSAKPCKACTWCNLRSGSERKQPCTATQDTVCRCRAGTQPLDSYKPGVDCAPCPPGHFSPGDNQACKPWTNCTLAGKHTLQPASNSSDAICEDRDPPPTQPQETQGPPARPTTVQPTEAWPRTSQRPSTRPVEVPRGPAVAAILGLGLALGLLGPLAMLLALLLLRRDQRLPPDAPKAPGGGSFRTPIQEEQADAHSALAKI

T3: human OX40-CD40 fusion protein on HEK-Blue reporter cells (human)
T3 chain: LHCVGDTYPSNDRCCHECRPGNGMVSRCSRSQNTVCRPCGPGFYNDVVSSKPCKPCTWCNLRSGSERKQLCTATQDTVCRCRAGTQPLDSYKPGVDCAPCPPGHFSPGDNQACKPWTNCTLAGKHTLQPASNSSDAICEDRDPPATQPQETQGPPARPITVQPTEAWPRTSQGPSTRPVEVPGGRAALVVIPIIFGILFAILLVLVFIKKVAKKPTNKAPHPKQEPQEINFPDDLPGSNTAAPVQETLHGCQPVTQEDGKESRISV

T4: recombinant human OX40-his (Sino Biological, Cat#:10481-H03H) (human, UniProt P43489 29-214)
T4 construct: bought protein; also called hOX40-his; not shown: His tag
T4 sequence: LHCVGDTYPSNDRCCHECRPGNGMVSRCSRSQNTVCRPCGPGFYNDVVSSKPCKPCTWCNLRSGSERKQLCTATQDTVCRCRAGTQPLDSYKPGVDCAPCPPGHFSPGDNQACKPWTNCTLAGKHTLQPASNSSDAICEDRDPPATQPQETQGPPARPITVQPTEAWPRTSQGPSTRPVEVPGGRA

T5: mouse OX40 expressed on HEK293A cells (mouse, UniProt P47741 20-272)
T5 construct: also called HEK293A/muOX40; HEK293A/mouseOX40 cells
T5 sequence: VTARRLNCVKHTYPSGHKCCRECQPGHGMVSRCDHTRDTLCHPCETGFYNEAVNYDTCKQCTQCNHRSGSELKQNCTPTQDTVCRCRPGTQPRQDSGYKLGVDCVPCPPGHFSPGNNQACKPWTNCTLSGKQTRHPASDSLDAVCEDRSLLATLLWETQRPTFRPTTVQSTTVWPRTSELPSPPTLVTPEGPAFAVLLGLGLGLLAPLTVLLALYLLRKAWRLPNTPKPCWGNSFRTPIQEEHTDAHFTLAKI

T6: murine OX40-His (Crown, Cat#: E3350-B1707) (mouse, UniProt P47741 20-211)
T6 construct: bought protein; also called mouse OX40-his; muOX40-his; not shown: His tag
T6 sequence: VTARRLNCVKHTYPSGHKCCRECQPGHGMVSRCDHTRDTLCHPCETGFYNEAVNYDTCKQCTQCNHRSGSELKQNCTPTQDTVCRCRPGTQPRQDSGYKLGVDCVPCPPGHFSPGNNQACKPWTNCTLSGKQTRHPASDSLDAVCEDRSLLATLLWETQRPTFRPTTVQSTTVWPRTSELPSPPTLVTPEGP

T7: recombinant rhesus OX40-his (Sino Biological, Cat#:90846-C08H) (rhesus monkey, UniProt P43489 29-214 (human entry))
T7 construct: bought protein; also called monkey OX40-his; rhOX40-his; not shown: His tag
T7 chain: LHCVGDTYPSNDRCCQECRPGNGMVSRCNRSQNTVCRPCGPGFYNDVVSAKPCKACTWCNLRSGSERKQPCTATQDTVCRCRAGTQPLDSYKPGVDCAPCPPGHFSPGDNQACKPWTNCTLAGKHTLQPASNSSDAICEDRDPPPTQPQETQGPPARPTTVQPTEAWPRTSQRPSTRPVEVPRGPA


Columns and labels:
[1] = molecular target: T1, human OX40 expressed on HEK293A cells; test: FACS on HEK293A cells
Method: (§1) Briefly, 10^5 HEK293A cells were seeded into each well of the 96-well plates and serially diluted anti-OX40 antibodies were added to the plates. After incubated at 4° C. for 1 hour, plates were washed 3 times with PBST. Then, an APC coupled Goat Anti-Mouse IgG (BioLegen, US, Cat#: 405308) diluted 500× was added to the plates. After incubation at 4° C. for 1 hour, the plates were washed with PBS for 3 times and then cell fluorescence was monitored using a FACS machine (BD).

[2] = molecular target: T2, rhesus OX40 expressed on HEK293A cells; test: FACS on HEK293A cells
Method: as §1

[3] = molecular target: T3, human OX40-CD40 fusion protein on …; test: cell-based or functional assay
[4] = molecular target: T4, recombinant human OX40-his (Sino …); test: ELISA, coated hOX40-his
Method: (§2) ELISA plates were coated with 500 ng/ml human OX40-his (used in Example 2) at 4° C. overnight. The wells were blocked with 200 µl of blocking buffer (PBS containing 1% BSA, 1% goat serum, 0.05% Tween 20) for 2 hours at room temperature, and then 100 µl of serially diluted anti-OX40 antibodies (starting from 40 µg/ml) were added to each well and incubated for 1 hour at RT. Plates were washed for 3 times with PBST (PBS+0.05% Tween 20), added with Goat-anti-mouse IgG-HRP (Simga, US, Cat#: A9309-1 ml) diluted 5000×, and incubated for 1 hour at RT. Plates were developed with freshly prepared Ultra-TMB (BD, US, Cat#: 555214) for 5 minutes at RT. Absorbance was read on a SpectraMax® i3× (Molecular Devies, US) at 450 nm.

[5] = molecular target: T5, mouse OX40 expressed on HEK293A cells; test: FACS on HEK293A/muOX40 cells
Method: as §1

[6] = molecular target: T6, murine OX40-His (Crown, Cat#: …); test: ELISA, coated muOX40-his
[7] = molecular target: T7, recombinant rhesus OX40-his (Sino …); test: ELISA, coated rhOX40-his
Method: as §2
Species-cross-reactivity of the 33 OX40 mAbs to monkey or mouse OX40 was further assessed by direct ELISA. Briefly, 500 ng/ml monkey OX40-his or mouse OX40-his (used in Example 2) was coated on 96-well ELISA plates followed by incubation with 100 µl of serially diluted anti-OX40 antibodies (starting from 40 µg/ml). Goat anti-mouse IgG (Sigma, US, Cat#:A9309-1 ml) conjugated with HRP was used then.

[8] = molecular target: T1, human OX40 expressed on HEK293A cells; test: FACS on HEK293A/huOX40 cells
[9] = molecular target: T2, rhesus OX40 expressed on HEK293A cells; test: FACS on HEK293A/rhOX40 cells
[10] = molecular target: T4, recombinant human OX40-his (Sino …); test: ELISA on coated human OX40-His, OD450
[11] = molecular target: T6, murine OX40-His (Crown, Cat#: …); test: ELISA on coated mouse OX40-His, OD450
[12] = molecular target: T7, recombinant rhesus OX40-his (Sino …); test: ELISA on coated rhesus OX40-His, OD450
[13] = molecular target: T4, recombinant human OX40-his (Sino …); test: SPR Biacore 8K, OX40-His on chip, antibody injected
Method: SPR assays were used to determine the binding affinity of the chimetic or humanized anti-OX40 antibodies to human OX40 with the BIAcore™ 8K instrument (GE Life Sciences). Briefly, 100-200 response units (RU) of human OX40-His protein (Sino Biological, CN, Cat#:10481-H03H, Lot no.: MA08MA3003) were coupled to CM5 biosensor chips (Cat#: BR-1005-30, GE Life Sciences), followed by blocking of un-reacted groups with 1M ethanolamine. Serially diluted antibodies at concentrations ranging from 0.3 µM to 10 µM were injected into the SPR running buffer (HBS-EP buffer, pH7.4, GE Life Sciences; US; Cat#:BR-1006-69) at 30 µL/minute. The binding capacitity was calculated with the RUs of blank controls subtracted. The association rate (k_a) and dissociation rate (k_d) were calculated using the one-to-one Langmuir binding model (BIA Evaluation Software, GE Life Sciences). The equilibrium dissociation constant K_D was calculated as the k_d/k_a ratio.

[14] = molecular target: T6, murine OX40-His (Crown, Cat#: …); test: ELISA
[15] = molecular target: T2, rhesus OX40 expressed on HEK293A cells; test: FACS on HEK293A/rhesus OX40 cells, MFI (panel without title; monkey OX40 by the legend)
Method: as §1
Example 15 Humanized Anti-OX40 Antibodies Bound to Human or Rhesus OX40 Expressed on HEK293A Cells The humanized anti-OX40 antibodies were also tested for their ability of binding to HEK293A/huOX40 cells or HEK293A/rhOX40 cells, following the FACS analysis protocol as described in Example 5.

Binder | EC50 [1] [µg/mL] | EC50 [2] [µg/mL] | EC50, agonistic activity in HEK-Blue assay [3] [µg/mL] | EC50 [4] [µg/mL] | binding result [5] | EC50 [7] [µg/mL] | EC50 [8] [µg/mL] | EC50 [9] [µg/mL] | EC50 (read off the curve) [10] [µg/mL] | binding result [11] | EC50 (read off the curve) [12] [µg/mL] | Kd [13] [nM] | koff [13] [s⁻¹] | kon [13] [M⁻¹ s⁻¹] | binding result [14] | binding result [15] | binding result [6]
68C8 (murine monoclonal antibody) (antibody, V domains shown) VH: QVQLQQSGAELVKPGASVKMSCKASGDTFTSYWITWVKQRPGQGLEWIGDIHPGSGSTNNNEKFKNKATLTVDTSSSTAYMQLSSLTSEDSAVYYCAKLRPYYFVYWGQGTTLTVSS VL: DIQMTQTTSSLSASLGDRVTISCRASQDISNYLNWYQQKPDGTVKLLIYYTSRLLSGVPSRFSGSGSGTDYSLTISNLEQEDIATYFCQQGNTLPLTFGAGTRLELK | 0.113 | 0.095 | 0.0866 | 0.0483 | no binding | 0.06 | – | – | – | – | – | – | – | – | – | – | no binding (tested: serial dilution from 40 µg/ml)
71H8 (murine monoclonal antibody) (antibody, V domains shown) VH: QVQLQQSGAELVKPGASVKMSCKASGYTFTSYWITWVKQRPGQGLEWIGDIYPGSGSTNQNEKFKSKATLTVDTSSSTAYMQLSSLTSEDSAVYYCAKLRPYYFVYWGQGTTLTVSS VL: DIQMTQTPSSLSASLGDRVTISCRASQDISNYLNWYQQKPDGTVKLLIYYTSRLLSGVPSRFSGSGSGTDYSLTISNLEQEDIATYFCQQGNTLPLTFGAGTKLELK | 0.113 | 0.126 | 0.0494 | 0.052 | no binding | 0.0501 | – | – | – | – | – | – | – | – | – | – | no binding (tested: serial dilution from 40 µg/ml)

Further lines, with some results ahead:

EC50 [1] [µg/mL] | EC50 [2] [µg/mL] | EC50, agonistic activity in HEK-Blue assay [3] [µg/mL] | EC50 [4] [µg/mL] | binding result [5] | EC50 [7] [µg/mL] | EC50 [8] [µg/mL] | EC50 [9] [µg/mL] | EC50 (read off the curve) [10] [µg/mL] | binding result [11] | EC50 (read off the curve) [12] [µg/mL] | Kd [13] [nM] | koff [13] [s⁻¹] | kon [13] [M⁻¹ s⁻¹] | binding result [14] | binding result [15] | Binder | binding result [6]
0.406 | 0.253 | 0.274 | 0.0415 | no binding | 0.05 | – | – | – | – | – | – | – | – | – | – | 6A12 (murine monoclonal antibody) (antibody, V domains shown) VH: QVQLQQSGPELVKPGASVKISCKASGYAFSSSWMNWVKQRPGKGLEWIGRIYPGDGITNYNGNFKGKATLTADKSSSTAYMQLSGLTSADSAVYFCAREFIPLGWGTGTTVTVSS VL: DIVMTQTPFSNPVTLGTSASISCRSSKSLLHSNGITYLYWYLQKPGQSPQLLIYQMSNLASGVPDRFSSSGSGTDFTLRISRVEAEDVGVYYCAQNLELPWTFGGGTKLEIK | no binding (tested: serial dilution from 40 µg/ml)
– | – | – | – | – | – | 0.144 | 0.151 | ~0.003 | no binding (tested: 10000 ng/ml (log 4)) | ~0.003 | 0.158 | 8.28e-05 | 525000 | – | – | chimeric antibody 71H8 (antibody, human IgG1, kappa, V domains shown, mouse variable regions with human IgG1/kappa constant regions) VH: QVQLQQSGAELVKPGASVKMSCKASGYTFTSYWITWVKQRPGQGLEWIGDIYPGSGSTNQNEKFKSKATLTVDTSSSTAYMQLSSLTSEDSAVYYCAKLRPYYFVYWGQGTTLTVSS VL: DIQMTQTPSSLSASLGDRVTISCRASQDISNYLNWYQQKPDGTVKLLIYYTSRLLSGVPSRFSGSGSGTDYSLTISNLEQEDIATYFCQQGNTLPLTFGAGTKLELKR | –
– | – | – | – | – | – | – | – | ~0.003 | – | ~0.003 | 37.2 | 0.00871 | 234000 | no binding | binds | 71H8-VH3VL2 (antibody, human IgG1, kappa, V domains shown, humanized; also called 71H8-H3L2) VH: QVQLVQSGAEVKKPGASVKVSCKVSGYTFTSYWITWVRQRPGQGLEWIGDIYPGSGSTNQNEKFKSRVTLTVDTSTDTAYMELSSLRSEDTAVYYCATLRPYYFVYWGQGTLVTVSS VL: DIQMTQSPSSLSASVGDRVTITCRASQDISNYLNWYQQKPGKTPKLLIYYTSRLLSGVPSRFSGSGSGTDYTLTISSLQPEDFATYYCQQGNTLPLTFGQGTRLEIKR | –
